Measurements taken from patent US20250340613A1 (JOINT STOCK COMPANY BIOCAD, published 2025).

Tests used:
[1] = target: T1, hIL4R-His, Interleukin-4 receptor subunit alpha (Homo sapiens) aa 27-227 (Homo sapiens, UniProt P24394 27-227); test: BLI Octet RED 384; antibody on ProA sensor, antigen 30 ug/ml (1154 nM); response at end of association
T1 construct: range 27-227; not shown: His tag as the name implies
T1 sequence (looked up): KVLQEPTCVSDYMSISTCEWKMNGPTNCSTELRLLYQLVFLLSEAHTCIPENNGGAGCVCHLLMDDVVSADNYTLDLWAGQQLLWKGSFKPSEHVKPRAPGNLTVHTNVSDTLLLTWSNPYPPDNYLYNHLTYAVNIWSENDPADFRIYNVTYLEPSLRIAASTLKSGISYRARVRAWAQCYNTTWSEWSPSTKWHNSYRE
Protocol: (§1) Experimental study of nonspecific binding of bispecific chimeric antibodies to non-target antigens was performed on Forte Bio Octert RED 384. Protein A (ProA) biosensors (ForteBio) were immersed into a solution containing antibodies at a concentration of 10 μg/ml for 150 seconds to immobilize same. The baseline was recorded in a 1×KB solution for 30 seconds. The antibody-loaded sensors were then immersed into wells containing non-target antigens at a concentration of 30 μg/ml for 150 seconds. Complex dissociation was then recorded for 30 seconds.
(§2) The reference sensors went through all the steps as the sensors used to record analyte sensograms did, with the exception of the association step—at the association step, the sensors were immersed in a kinetic buffer solution without analyte (the reference sensor signals were measured in parallel with the recording of the main sensograms). The reference signal was subtracted from the signal received on sensors interacting with the analyte during the processing of sensograms.
(§3) Sensograms were processed using ForteBio Octet Data Analysisn 9.0 software. To report no non-specific interaction, the recorded signal level was checked at the end of the association step (the response parameter).

[2] = target: T2, hisOX40, Tumor necrosis factor receptor superfamily member 4 (Homo sapiens) aa 26-210 (Homo sapiens, UniProt P43489 26-210); test: BLI Octet RED 384; antibody on ProA sensor, antigen 30 ug/ml (1310 nM); response at end of association
T2 construct: range 26-210; The tag is put first only because the name begins with His; not shown: His tag as the name implies
T2 sequence (looked up): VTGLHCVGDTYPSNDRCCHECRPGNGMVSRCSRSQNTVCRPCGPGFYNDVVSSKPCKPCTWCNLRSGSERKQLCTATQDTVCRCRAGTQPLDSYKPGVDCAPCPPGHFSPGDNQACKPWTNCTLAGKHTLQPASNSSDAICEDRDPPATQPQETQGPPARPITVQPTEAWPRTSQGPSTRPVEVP
Protocol: as §1, §2, §3

[3] = target: T3, extracellular domain of the human PD-1 protein (hPD1ex-H6F) (Homo sapiens, UniProt Q15116 21-170); test: BLI Octet RED 384; antibody on ProA sensor, antigen 30 ug/ml (1456 nM); response at end of association
T3 construct: Molecular weight 20.6 kDa; made in CHO cells; also called hPDlex-H6F; not shown: C-terminal His and FLAG tags
T3 sequence (Q15116 21-170 limits assumed, form in doubt): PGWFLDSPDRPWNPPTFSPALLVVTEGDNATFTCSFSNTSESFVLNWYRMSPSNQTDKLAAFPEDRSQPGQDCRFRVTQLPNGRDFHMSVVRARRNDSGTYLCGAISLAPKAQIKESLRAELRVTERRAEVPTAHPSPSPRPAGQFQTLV
Protocol: as §1, §2, §3

[4] = target: T4, C-Avi-His-TEVs-HSA_hBCMA, Tumor necrosis factor receptor superfamily member 17 (Homo sapiens) aa 1-54 (Homo sapiens, UniProt Q02223 1-54); test: BLI Octet RED 384; antibody on ProA sensor, antigen 30 ug/ml (391.2 nM); response at end of association
T4 construct: range 1-54; not shown: Avi, His, TEV site and HSA parts as the name implies
T4 sequence (looked up): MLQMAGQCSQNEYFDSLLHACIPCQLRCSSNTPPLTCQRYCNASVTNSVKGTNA
Protocol: as §1, §2, §3

[5] = target: T5, Her3-H6F, Receptor tyrosine-protein kinase erbB-3 (Homo sapiens) aa 21-643 (Homo sapiens, UniProt P21860 21-643); test: BLI Octet RED 384; antibody on ProA sensor, antigen 30 ug/ml (420.8 nM); response at end of association
T5 construct: not shown: His and FLAG tags implied by the name 'H6F'
T5 sequence (P21860 21-643 limits assumed): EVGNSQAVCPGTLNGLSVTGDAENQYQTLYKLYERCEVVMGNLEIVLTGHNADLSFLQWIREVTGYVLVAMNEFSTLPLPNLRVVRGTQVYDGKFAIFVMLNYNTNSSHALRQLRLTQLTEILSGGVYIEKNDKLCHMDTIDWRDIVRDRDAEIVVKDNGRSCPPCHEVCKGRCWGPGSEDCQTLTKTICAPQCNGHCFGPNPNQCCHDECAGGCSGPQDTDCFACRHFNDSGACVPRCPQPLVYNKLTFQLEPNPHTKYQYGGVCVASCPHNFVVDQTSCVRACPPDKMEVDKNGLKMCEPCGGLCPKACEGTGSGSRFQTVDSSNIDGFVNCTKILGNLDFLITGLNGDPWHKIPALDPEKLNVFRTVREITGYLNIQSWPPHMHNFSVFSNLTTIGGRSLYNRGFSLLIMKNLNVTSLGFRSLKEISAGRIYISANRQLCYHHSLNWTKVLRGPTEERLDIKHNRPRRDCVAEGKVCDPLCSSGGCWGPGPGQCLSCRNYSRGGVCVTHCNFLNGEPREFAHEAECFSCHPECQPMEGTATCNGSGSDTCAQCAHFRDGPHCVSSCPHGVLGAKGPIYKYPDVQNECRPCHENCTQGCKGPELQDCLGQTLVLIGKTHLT
Protocol: as §1, §2, §3

[6] = target: T6, extracellular domain of the human CSF1R protein (hCSF1R_His) (Homo sapiens, UniProt P07333 20-512); test: BLI Octet RED 384; antibody on ProA sensor, antigen 30 ug/ml (522.5 nM); response at end of association
T6 construct: range 20-512; Molecular weight 57.4 kDa; made in CHO cells; also called hCSF1_His; not shown: C-terminal His and FLAG tags
T6 sequence (P07333 20-512 limits assumed): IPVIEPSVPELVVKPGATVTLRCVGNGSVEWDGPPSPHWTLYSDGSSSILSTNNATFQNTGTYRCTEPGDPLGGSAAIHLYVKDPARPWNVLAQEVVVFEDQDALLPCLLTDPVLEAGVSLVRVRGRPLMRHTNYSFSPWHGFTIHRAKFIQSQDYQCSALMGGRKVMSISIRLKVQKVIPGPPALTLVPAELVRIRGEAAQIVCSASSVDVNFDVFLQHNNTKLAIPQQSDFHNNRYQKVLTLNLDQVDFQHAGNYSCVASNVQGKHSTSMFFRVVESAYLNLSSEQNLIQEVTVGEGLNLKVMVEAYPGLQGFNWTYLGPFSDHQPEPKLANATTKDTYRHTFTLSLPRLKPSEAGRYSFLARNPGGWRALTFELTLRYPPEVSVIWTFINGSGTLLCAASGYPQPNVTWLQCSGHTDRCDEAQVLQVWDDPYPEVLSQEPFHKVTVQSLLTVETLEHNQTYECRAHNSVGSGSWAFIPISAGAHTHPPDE
Protocol: as §1, §2, §3

[7] = target: T7, Macaca CSF1R_C-His, Macrophage colony-stimulating factor 1 receptor (Macaca mulatta) aa 20-513 (Macaca mulatta); test: BLI Octet RED 384; antibody on ProA sensor, antigen 30 ug/ml (534.8 nM); response at end of association
T7 construct: range 20-513
Protocol: as §1, §2, §3

[8] = target: T8, IL5R-His, Interleukin-5 receptor subunit alpha (Homo sapiens) aa 22-342 (Homo sapiens, UniProt Q01344 22-342); test: BLI Octet RED 384; antibody on ProA sensor, antigen 30 ug/ml (757.6 nM); response at end of association
T8 construct: not shown: His tag as the name implies
T8 sequence (looked up): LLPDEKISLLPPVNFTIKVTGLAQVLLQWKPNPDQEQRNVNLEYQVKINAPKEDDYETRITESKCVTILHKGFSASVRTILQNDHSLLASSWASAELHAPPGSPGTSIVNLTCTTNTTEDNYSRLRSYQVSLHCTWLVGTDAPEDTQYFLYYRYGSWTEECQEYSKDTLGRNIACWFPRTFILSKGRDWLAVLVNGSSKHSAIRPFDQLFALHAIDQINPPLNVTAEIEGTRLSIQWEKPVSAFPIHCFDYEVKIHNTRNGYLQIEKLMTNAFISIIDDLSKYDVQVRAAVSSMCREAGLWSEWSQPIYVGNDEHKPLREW
Protocol: as §1, §2, §3

[9] = target: T9, hCD38-Avi, ADP-ribosyl cyclase/cyclic ADP-ribose hydrolase 1 (Homo sapiens) aa 43-300 (Homo sapiens, UniProt P28907 43-300); test: BLI Octet RED 384; antibody on ProA sensor, antigen 30 ug/ml (854.7 nM); response at end of association
T9 construct: range 43-300; not shown: Avi tag as the name implies
T9 sequence (looked up): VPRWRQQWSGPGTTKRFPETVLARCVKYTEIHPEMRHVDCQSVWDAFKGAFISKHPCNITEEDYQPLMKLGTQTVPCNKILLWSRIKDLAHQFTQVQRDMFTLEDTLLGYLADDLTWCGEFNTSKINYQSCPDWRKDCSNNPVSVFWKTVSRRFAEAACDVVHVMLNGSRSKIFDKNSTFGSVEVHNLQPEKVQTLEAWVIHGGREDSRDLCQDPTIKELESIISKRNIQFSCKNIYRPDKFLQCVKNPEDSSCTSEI
Protocol: as §1, §2, §3

- Signal level (nm) [1]: -0.002 nm
- Signal level (nm) [3]: -0.0033 nm
- Signal level (nm) [5]: -0.0108 nm
- Signal level (nm) [6]: 0.548 nm
- Signal level (nm) [7]: 0.549 nm
- Signal level (nm) [8]: 0.0098 nm
- Signal level (nm) [9]: 0.0028 nm
B1: 02-008, bivalent bispecific chimeric antibody that specifically binds to CD20 and CSF1R (bispecific antibody, human IgG1, kappa, L234A L235A)
heavy 1: EVQLVESGGGLVQPGGSLRLSCAASGYTFTSYNMHWVRQAPGKGLEWVGAIYPGNGDTSYNQKFKGRFTISVDKSKNTLYLQMNSLRAEDTAVYYCARVVYYSNSYWYFDVWGQGTLVTVSSASTKGPSVFPLAPSSKSTSGGTAALGCLVKDYFPEPVTVSWNSGALTSGVHTFPAVLQSSGLYSLSSVVTVPSSSLGTQTYICNVNHKPSNTKVDKRVEPKSCDKTHTCPPCPAPEAAGGPSVFLFPPKPKDTLYITREPEVTCVVVDVSHEDPEVKFNWYVDGVEVHNAKTKPREEQYNSTYRVVSVLTVLHQDWLNGKEYKCKVSNKALPAPIEKTISKAKGQPREPQVCTLPPSRDELTKNQVSLSCAVKGFYPSDIAVEWESNGQPENNYKTTPPVLDSDGSFFLVSKLTVDKSRWQQGNVFSCSVMHEALHNHYTQKSLSLSPGK
light 1: DIQMTQSPSSLSASVGDRVTITCRASSSVSYMHWYQQKPGKAPKPLIYAPSNLASGVPSRFSGSGSGTDFTLTISSLQPEDFATYYCQQWSFNPPTFGQGTKVEIKRTVAAPSVFIFPPSDEQLKSGTASVVCLLNNFYPREAKVQWKVDNALQSGNSQESVTEQDSKDSTYSLSSTLTLSKADYEKHKVYACEVTHQGLSSPVTKSFNRGEC
heavy 2: not shown
light 2: QAGLTQPPSVSVAPGQTARITCGGNNIGSKSVHWYQQKPGQAPVLVVYGDSDRPSGIPERFSGSNSGNTATLTISRVEAGDEADYYCQVWDISSDHVVFGGGTQLTVLQRQVKPEAWLSSGPSPGPGRLQLVCHVSGFYPKPVWVMWMRGEQEQQGTQLGDILPNANWTWYLRATLDVADGEAAGLSCRVKHSSLEGQDIILYWRGSC
notes: Produced in CHO cells
- Signal level (nm) [2]: -0.012 nm
- Signal level (nm) [4]: -0.0023 nm
